Laboratory results reported in the supplement of paper PMC9170038.

Assays:
MS2 coat protein [1] = test: apparent KD of MS2 coat protein, switch ON state; designed switch direction (-1 OFF switch, 1 ON switch): -1; higher = weaker reporter binding; details: FMN input: 0 or 200 uM; Eterna round: R93 (includes R88 designs)
How it was run: (§1)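 Binding of SNAP-549-labelled MS2 coat protein was measured on designed RNA switches transcribed on-chip from Illumina sequencing clusters. The protein rose in twofold steps from 0.7 or 1.5 nM to 3 µM, with 0.8–1.5 h per step early on and 10–20 min per step later, in 100 mM Tris-HCl pH 7.5, 80 mM KCl, 4 mM MgCl2, without or with constant ligand. Each design's apparent KD is the median of fits to its normalised cluster binding curves.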

MS2 coat protein [2] = test: apparent KD of MS2 coat protein, switch OFF state (with FMN for OFF switches, without FMN for ON switches); designed switch direction (-1 OFF switch, 1 ON switch): -1; higher = weaker reporter binding; details: FMN input: 0 or 200 uM; Eterna round: R93 (includes R88 designs)
How it was run: as §1

| Sequence | apparent KD of MS2 coat protein (MS2 coat protein [1]) [nM] | apparent KD of MS2 coat protein (MS2 coat protein [2]) [nM] |
| --- | --- | --- |
| AAAUGACAUGAGGAUCACCCAUGUCAGGAUAUGACUUGAAAAAUAAAAUAAAAACAUGUCAGAAGGGACAUGGA [Design 51: Sub-opt GB] | 23.9 | 20.8 |
| AGUUGGCGAGGAUAUACAUGAGGAUCACCCAUGUGAGAGAAAAACUCGAAAGAGAAAAGUAGAAGGCGCUGACA [73%, Moding Norbert Elias, 6] | 19.3 | 82.2 |
| AGGGAGUAAGGAUAUGAGAAAUAAAAAGAAGGAAAAAAAGAUCAGAAGGUACAUGAGGAUCACCCAUGUGGGAA [milkweed 10] | 43.1 | 39.9 |
| CUCAAGUGAGGAUAUUUAAGAAAAGAAGAGAAAGAAAAGAAAAAGAAGGCACAUGAGGAUCACCCAUGUAAGAA [EteRNA is fun!] | 31.5 | 32.8 |
| AGUAUGCGAGGAUAUACAUGAGGAUCACCCAUGUGAGAGAUAAAAGUGAGAAAGAAAUGUAGAAGGCGCGUACA [JL Lego Mod 22] | 98.8 | 43 |
| AUAGUAGGAGGAUAUACAUAGAUACAGAUACAUGUAGACGUACAUGAGGAUCACCCAUGUAGAAGGCCUAUGAA [Mat - Same state - Mayanna Mod - D149] | 126 | 116 |
| AACCAACAUGAGGAUCACCCAUGUCAGGAUAUGCAAAUAACAAACAACAAACAACAAAGCAGAAGGGACAACAA [Mat - Exclusion 1 - Eli mod - D50] | 15.4 | 20.5 |
| AAAAGGGCAGGAUAUGCGUACUCACGGAAAAACUGGAUGGUACAUGAGGAUCACCCAUGUAGAAGGGCUAAAAA [Dora Explored 17 - Jieux - Exclusion 2] | 57.5 | 40.9 |
| AGAAUACAUGAGGAUCACCCAUGUGAGGAUAUCAGAAGAAAAAGAAAAGAAAAGAAACUGAGAAGGCACAAAAG [EX 1 May 15] | 35.7 | 66.1 |
| AGUAUGCGAGGAUAUACAUGAGGAUCACCCAUGUGAGAGAUAAGUGUGAGAAAGACAUGUAGAAGGCGCGUACA [JL Lego Mod 28] | 146 | 35.1 |
| AAAAAACAUGAGGAUCACCCAUGUGAGGAUAUCGUAAACAAAAAAAACAAAAACAAAUCGAGAAGGCACAAAAA [Amethyst 34] | 21 | 35.1 |
| AAAACUAGAGGAUAUACGAACAUGUCAAAAGACGUGAAGGGACAUGAGGAUCACCCAUGUAGAAGGCUAGAAAA [JL Stem Breaker 11] | 55.6 | 71.9 |
| AUCUAGUCAGGAUAUCGAUGAAAUGAAGUGAAAGAAAAGAACGAGAAGGGACAUGAGGAUCACCCAUGUUAGAA [EteRNA is fun!] | 31.2 | 18.8 |
| CUCUAGUCAGGAUAUGGAAGAAAAGAAGAGAAAGAAAAGAACCAGAAGGGACAUGAGGAUCACCCAUGUAAGAA [EteRNA is fun!] | 78.2 | 41.8 |
| AGCUAGUCAGGAUAUACGAACAUGUCAGAAGACGUGAAGGGACAUGAGGAUCACCCAUGUAGAAGGGACUAGCG [74%, Web mod - With 2 more G's] | 34.9 | 117 |
| AGUUGGCGAGGAUAUACAUGAGGAUCACCCAUGUAAAAUAAAUAAAAAGGGAAAGAAAGUAGAAGGCGCUGACA [73%, Moding Norbert Elias, 10] | 42.4 | 83.3 |

| Sequence | apparent KD of MS2 coat protein (MS2 coat protein [1]) [nM] | apparent KD of MS2 coat protein (MS2 coat protein [2]) [nM] |
| --- | --- | --- |
| GAAAAGUGAGGAUAUGCGAAGGCGUCUGAUAGACGAGGCUAGCAGAAGGCACAUGAGGAUCACCCAUGUGGGAG [Mat - Exclusion 4 - Eli mod - D92] | 61.9 | 76.4 |
| AAGAAGUCAGGAUAUGCGAAUCGAUAAGAACGUCAAAGAAAGCAGAAGGGACAUGAGGAUCACCCAUGUAAAGA [Opal 39] | 30.7 | 27.6 |
| AGGAAACAUGAGGAUCACCCAUGUCAGGAUAUAGAAAAGAAAAGAAAAGAAAGAAGAACUAGAAGGGACAAGAA [Scorpion I] | 27.7 | 26.3 |
| AAACCACAUGAGGAUCACCCAUGUCAGGAUAUGCUAUGGAAAAAUAAAAUAAAACAUAGCAGAAGGGACAAAAA [Mat - Exclusion 1 - Eli mod - D34] | 31.1 | 52 |
| AUAGGUCGAGGAUAUACAUGAGGAUCACCCAUGUAAAUAAAUAAAUAAAACUCCACAAGUAGAAGGCGAAAUAA [JR_Exc003_Sub201] | 28.1 | 22.6 |
| AUAGGCCUAGGAUAUACAUGAGGAUCACCCAUGUAAACAGAUAGAUCAAGGUAAACGAGUAGAAGGAGGAAUAA [JR_Exc003_Sub209] | 22 | 17.8 |
| UAAAGACAUGAGGAUCACCCAUGUGAGGAUAUAGGUGUAUGCAAAAAAAAGCAAAAAACUAGAAGGCACAGAAA [JR_Exc001_Sub304] | 59.6 | 68.9 |
| AAAAAGUCAGGAUAUACGAAAGUGCGAAAGCACAAAAAGAGACAUGAGGAUCACCCAUGUAGAAGGGACAAGAA [Married to this design, 61% 2] | 45 | 17.8 |
| AAAGGACGAGGAUAUACAUGAGGAUCACCCAUGUAAAAAACAUAAUAAAAGAAUAUAUGUAGAAGGCGUCCAAA [Ruby 59] | 18.7 | 17.8 |
| CCUAUGUCAGGAUAUCAGUAGUAAAAAAAAAAAAUUACUACUGAGAAGGGACAUGAGGAUCACCCAUGUCACUU [EX4 311: Super Stable 11] | 28.5 | 18.8 |
| AGGAUGUCAGGAUAUGUGUAAAGAAUAAAACAAAUAACAACACAGAAGGGACAUGAGGAUCACCCAUGUUACCA [May 37] | 19.9 | 20.9 |
| AACAAACAUGAGGAUCACCCAUGUCAGGAUAUGCAAACAACAAACAACAAACAACAAAGCAGAAGGGACAACAA [e1-3] | 19.9 | 25.1 |
| AGGGAGUGAGGAUAUGCGAAAGAAAAAGAAGGAAAAAAAGAGCAGAAGGUACAUGAGGAUCACCCAUGUAAAAA [milkweed 8] | 27.9 | 16.9 |
| AAAAAAAGAGGAUAUACGAACAUGUCAAAAGACGUGAAGGGACAUGAGGAUCACCCAUGUAGAAGGCUUAAAAA [JL Part Open 28] | 38.7 | 26.3 |
| AAUAACAGAGGAUAUGCAAAAAUAAGCGGAAACGCAAGAAAACAUGAGGAUCACCCAUGUAGAAGGCUGGAUAA [Tetraloop hairpin BlockHead Variations] | 24.6 | 16.7 |
| AAACUGGUAGGAUAUGCUAGGGCGAUUAAUACGCCGAUAGUACAUGAGGAUCACCCAUGUAGAAGGGCCAGAAA [Mat - Exclusion 2 - JL mod - D65] | 30.8 | 23.6 |
